Assay results published in patent US20180280504A1, “GLYCAN-INTERACTING COMPOUNDS AND METHODS OF USE” (SIAMAB THERAPEUTICS, INC., priority 2014, published 2018).

Key:
[1] = test system: MDA-MD-231 STn+ cells; assay: Fluorescence microscopy of ALEXA FLUOR 488-S3F binding and internalization, STn+ cells; type: cell-based, human
Protocol: To analyze the internalization of antibodies by fluorescence microscopy, the following procedure was carried out. MDA-MD-231 STn− cells and MDA-MD-231 STn+ cells were cultured in Eagles minimum essential medium containing 10% fetal calf serum, 100 μg/ml penicillin, 100 UI/ml streptomycin, 45 μg/ml gentamycin, as well as 1 mg/ml G418 for STn+ cells. Cells were sub-cultured by treatment with Accutase buffer and seeded in microscope chamber slides at 10,000 cells/chamber in the case of STn− cells and 20,000 cells/chamber in the case of STn+ cells. All cells were cultured overnight at 37° C. Cells were subsequently incubated with either 1.5, 5 or 10 μg/ml S3F conjugated with ALEXA FLUOR® 488 dye (Thermo Fisher Scientific, Pittsburgh, Pa.) in complete media at 4° C. for 1 hour. Cells were then washed with ice-cold PBS in order to remove antibodies that were not bound to the cell surface. Complete media was then administered to each chamber and the cells were incubated at 37° C. for either 0, 15, 30 or 60 minutes in order to allow internalization of any surface-bound antibodies.
Following each time point, cells were washed twice with PBS in order to remove unbound antibodies. […] Cells were visualized the following day by analysis on a Nikon Eclipse Ti fluorescence microscope.

[2] = COLO-205 xenograft model, percent body weight change; type: in vivo, mouse; settings: 5 mg/kg i.p. once weekly
Excerpt: To evaluate antibody drug conjugates (ADCs) as single agents in an COLO-205 Colon AdenocarcinomaTumor Xonograft model, 40 athymic nude female mice age range 6-8 weeks were randomly separated into four separate groups, one vehicle control and three ADC treatments, then maintained individually with food/water ad libitum (see the following Table).
Animals were inoculated in the subcutaneous right flank with 5×10^6 colon adenocarcinoma tumor cells (COLO-205) in matrigel, mean tumor size was 175-225 mm^3 at study initiation. Animals were given either vehicle or one of the antibody drug conjugates (5 mg/kg) by intraperitoneal injection once weekly. Tumor volume and percent body weight change were determined once weekly until study termination. The study was terminated when the tumor in the vehicle control animal reached a mean tumor weight >1500 mm^3. SE refers to “standard error.”

[3] = test system: E3-STn tumors; assay: E3-STn allograft model, second round study, tumor volume; type: in vivo, mouse; settings: for Average Tumor Volume: 25 mg/kg i.p. twice weekly
Excerpt: (§1) Standard deviation values are listed in parenthesis.

[4] = E3-STn allograft model, complete blood count (CBC); type: in vivo, mouse; parameters: White blood cells Level: unit not given here; settings: CBC at end of study, 5 mice
Protocol: At the end of the study, a complete blood count (CBC) was obtained for 5 mice treated with antibody as well as 3 mice treated with vehicle control. Blood was collected from all mice via terminal cardiac puncture and processed for plasma. Blood was placed in EDTA microtainer tubes (BD & Co., Franklin Lakes, N.J.) then centrifuged. Plasma layers were then removed and snap frozen in cryo vials (Thermo-Fisher Scientific, Rochester, N.Y.) and stored at −80° C. until analysis. Analysis was carried out to look for levels of a variety of factors.

[5] = E3-STn allograft model, pathological evaluation of H&E stained organs; type: in vivo, mouse; settings: 5 treated mice
Protocol: At the end of the study described in Example 22, three mice from the vehicle control group and five mice that received 7G9-1A8 were chosen at random for post-study pathology assessment. Brain, colon, intestine, heart, kidney, liver, lung, mandibular salivary gland, pancreas, spleen, stomach, adrenal gland and thyroid gland organs were collected from each mouse. The organs were fixed in formalin (VWR; Radnor, Pa.) for about 48 hours, transferred to 70% ethanol (Sigma-Aldrich; St.Louis, Mo.), and then processed for standard H&E staining.
The H&E stained tissue slides were examined for pathology review. Liver sections from each animal had multifocal inflammation with or without concomitant hepatocellular necrosis. The histo-pathological changes were minimal to mild in severity. There was no appreciable difference in the morphology of lesions among vehicle control group mice and mice that received 7G9-1A8.

[6] = test system: E3-STn tumors; assay: E3-STn murine breast tumor allograft model, tumor volume; type: in vivo, mouse; settings: for Average Tumor Volume (mm^3): 7G9-1A8 25 mg/kg i.p. twice weekly for 3 weeks, Paclitaxel daily for 5 days
Protocol: 3 test articles were evaluated during the study.
as §1

B1: S3F: 3F1 variable domains combined with IgG2a constant domains; heavy chain SEQ ID NO: 63, light chain SEQ ID NO: 64 (antibody)
heavy: QVQLQQSDAELVKPGASVKISCKASGYTFTDHAIHWVKQKPEQGLDWIGYISPGNGDIKYNEKFKDKVTLTADKSSSTACMHLNSLTSEDSAVYFCKRSLLALDYWGQGTTLTVSSAKTTAPSVYPLAPVCGDTTGSSVTLGCLVKGYFPEPVTLTWNSGSLSSGVHTFPAVLQSDLYTLSSSVTVTSSTWPSQSITCNVAHPASSTKVDKKIEPRGPTIKPCPPCKCPAPNLLGGPSVFIFPPKIKDVLMISLSPIVTCVVVDVSEDDPDVQISWFVNNVEVHTAQTQTHREDYNSTLRVVSALPIQHQDWMSGKEFKCKVNNKDLPAPIERTISKPKGSVRAPQVYVLPPPEEEMTKKQVTLTCMVTDFMPEDIYVEWTNNGKTELNYKNTEPVLDSDGSYFMYSKLRVEKKNWVERNSYSCSVVHEGLHNHHTTKSFSRTPGK
light: DIVMTQSHKFMSTSVGDRVSITCKASQDVGTNIAWYQQKPGRSPKVLIYSASTRHTGVPDRFTGSGSGTDFTLTISNVQSEDLTDYFCQQYSSFPLTFGVGTKLELKRADAAPTVSIFPPSSEQLTSGGASVVCFLNNFYPKDINVKWKIDGSERQNGVLNSWTDQDSKDSTYSMSSTLTLTKDEYERHNSYTCEATHKTSTSPIVKSFNRNEC
[1]; 37° C. 15-60 min, acid wash
  internalization by STn+ cells: capable of being internalized by STn+ cells
[1]; 488-S3F conjugate at 1.5, 5, 10 μg/ml, 4° C.
  binding to the surface of STn+ cells: binds the surface of STn+ cells
[2]
  body weight course after initial drop: remained low
[2]; study day 1
  Percent Body Weight Change: 0%
[2]; study day 5
  Percent Body Weight Change: 1.18%
[2]; study day 8
  Percent Body Weight Change: −5.01%
[2]; study day 10
  Percent Body Weight Change: −2.53%
[2]; study day 15
  Percent Body Weight Change: −5.22%
[2]; study day 19
  Percent Body Weight Change: −1.33%
[2]; study day 22
  Percent Body Weight Change: −0.91%

B2: 7G9: anti-STn mouse monoclonal, IgG2b κ, from mouse #4407; VH SEQ ID NO: 12, VL SEQ ID NO: 9 (antibody, V domains shown)
VH: QVQLKESGPGLVAPSQNLSITCTVSGFSLTSYGVNWVRQPPGKGLEWLGVIWGDGSTNYHSALISRLIISKENSKSQVFLKLNSLQTNDTATYYCTKGFVYWGQGTLVTVSA
VL: QIVLTQSPAIMSASPGEKVTMTCSASSSVSYMHWYQQKSGTSPKRWIFDTSKLASGVPARFSGSGSGTSYSLTISSMEAEDAATYYCQQWSSNLLTFGAGTKLELK
[3]; day 1 of treatment
  Average Tumor Volume: 125.9 mm^3
[3]; day 5 of treatment
  Average Tumor Volume: 135.2 mm^3
[3]; day 8 of treatment
  Average Tumor Volume: 144.5 mm^3
[3]; day 12 of treatment
  Average Tumor Volume: 157.2 mm^3
[3]; day 15 of treatment
  Average Tumor Volume: 169.2 mm^3
[3]; day 19 of treatment
  Average Tumor Volume: 178.0 mm^3
[3]; day 22 of treatment
  Average Tumor Volume: 186.4 mm^3
[3]; day 26 of treatment
  Average Tumor Volume: 195.9 mm^3
[3]; day 29 of treatment
  Average Tumor Volume: 199.4 mm^3
[3]; day 33 of treatment
  Average Tumor Volume: 201.5 mm^3
[3]; day 36 of treatment
  Average Tumor Volume: 206.5 mm^3
[3]; day 40 of treatment
  Average Tumor Volume: 212.9 mm^3
[3]; day 43 of treatment
  Average Tumor Volume: 243.7 mm^3
[3]; day 47 of treatment
  Average Tumor Volume: 277.5 mm^3
[3]; day 50 of treatment
  Average Tumor Volume: 313.4 mm^3
[3]; second round study, 25 mg/kg i.p. twice weekly for 7 weeks
  average tumor volumes as compared to vehicle control: greatly reduced
[4]
  % Lymphocytes Level: 44.4%
  % Monocytes Level: 4.6%
  % Neutrophils (Segmented) Level: 51.0%
  Hematocrit Level: 46.9%
  Hemoglobin Level: 16.0 g/dL
  Lymphocytes Level: 5.6 10^9/L
  Mean Corpuscular Hemoglobin Concentration Level: 34.2 g/dL
  Mean Corpuscular Hemoglobin Level: 16.2 pg
  Mean Corpuscular Volume Level: 47.4 fL
  Mean platelet volume Level: 7.4 fL
  Monocytes Level: 0.7 10^9/L
  Neutrophils Level: 7.6 10^9/L
  Platelet Cell Distribution Width Level: 32.2%
  Platelet count Level: 712.2 10^3
  Red Cell Distribution Width Level: 19.0%
  Red blood cells Level: 9.9 10^6/L
  White blood cells Level: 13.9
[5]
  epicardial inflammation: not observed
  neutrophil aggregates in the muscularis mucosa of the stomach: not observed
[5]; 3 vehicle mice
  liver histopathology (multifocal inflammation, hepatocellular necrosis) vs vehicle control: no significant difference between the groups
[6]; 25 mg/kg i.p. twice weekly for 3 weeks
  average tumor volumes as compared to Paclitaxel and vehicle control: greatly reduced
[6]; day 1
  Average Tumor Volume (mm^3): 112.4 mm^3
[6]; day 4
  Average Tumor Volume (mm^3): 148.7 mm^3
[6]; day 6
  Average Tumor Volume (mm^3): 161.9 mm^3
[6]; day 8
  Average Tumor Volume (mm^3): 152.8 mm^3
[6]; day 11
  Average Tumor Volume (mm^3): 136.3 mm^3
[6]; day 13
  Average Tumor Volume (mm^3): 118.4 mm^3
[6]; day 15
  Average Tumor Volume (mm^3): 105.1 mm^3
[6]; day 18
  Average Tumor Volume (mm^3): 99.5 mm^3
[6]; day 20
  Average Tumor Volume (mm^3): 91.7 mm^3
[6]; day 22
  Average Tumor Volume (mm^3): 105.2 mm^3
[6]; day 26
  Average Tumor Volume (mm^3): 102.8 mm^3
[6]; day 27
  Average Tumor Volume (mm^3): 107.4 mm^3
[6]; day 29
  Average Tumor Volume (mm^3): 147.1 mm^3
[6]; day 32
  Average Tumor Volume (mm^3): 160.6 mm^3
[6]; day 34
  Average Tumor Volume (mm^3): 164.7 mm^3
[6]; day 36
  Average Tumor Volume (mm^3): 212.1 mm^3
[6]; day 39
  Average Tumor Volume (mm^3): 206.6 mm^3
[6]; day 41
  Average Tumor Volume (mm^3): 235.3 mm^3
